Measured values reported in article PMC10786891, “Massively parallel profiling of RNA-targeting CRISPR-Cas13d”.

T1: EsCas13d, nuclease-dead (Eubacterium siraeum, UniProt B0MS50, R295A;H300A;R849A;H854A)
T1 sequence: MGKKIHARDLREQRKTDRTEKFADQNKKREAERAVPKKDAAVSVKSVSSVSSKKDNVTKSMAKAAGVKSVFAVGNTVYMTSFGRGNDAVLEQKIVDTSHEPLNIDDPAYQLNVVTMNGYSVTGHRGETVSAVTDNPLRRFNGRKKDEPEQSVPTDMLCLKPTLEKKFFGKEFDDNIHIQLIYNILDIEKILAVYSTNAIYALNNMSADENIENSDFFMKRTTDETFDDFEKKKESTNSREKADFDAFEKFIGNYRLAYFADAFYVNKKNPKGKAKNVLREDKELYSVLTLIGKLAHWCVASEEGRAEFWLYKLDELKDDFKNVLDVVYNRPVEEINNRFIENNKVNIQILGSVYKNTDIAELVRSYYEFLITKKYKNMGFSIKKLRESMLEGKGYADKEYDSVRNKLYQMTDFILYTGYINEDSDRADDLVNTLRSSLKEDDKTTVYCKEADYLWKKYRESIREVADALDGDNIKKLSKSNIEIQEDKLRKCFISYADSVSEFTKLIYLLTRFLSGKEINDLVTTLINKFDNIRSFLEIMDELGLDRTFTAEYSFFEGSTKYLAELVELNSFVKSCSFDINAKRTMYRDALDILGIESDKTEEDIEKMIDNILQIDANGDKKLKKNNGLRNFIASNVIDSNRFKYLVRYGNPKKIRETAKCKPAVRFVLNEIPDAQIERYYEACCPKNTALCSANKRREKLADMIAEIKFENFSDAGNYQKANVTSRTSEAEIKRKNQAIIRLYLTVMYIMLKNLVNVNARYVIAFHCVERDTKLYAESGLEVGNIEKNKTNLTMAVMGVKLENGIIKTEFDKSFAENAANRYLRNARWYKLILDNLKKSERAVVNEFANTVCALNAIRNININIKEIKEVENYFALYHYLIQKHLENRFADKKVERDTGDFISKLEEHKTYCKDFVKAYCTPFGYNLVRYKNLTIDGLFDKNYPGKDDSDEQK

B1: target 1 insU 3' of 12,insC 3' of 5 (mixed)
RNA 1: CACCCGUGCAAAAAUGCAGGGGUCUAAAACUGAGCGGAUAACCUCUCUAUGG
RNA 2: GGGAAUGGAUCCACAUCUACGAAUUCGUACCAUAGAGAGGUUUAUCCGCCUCACCGAGAUCGGAAGAGCACACGU
B2: target 1 insA 3' of 7,insU 3' of 1 (mixed)
RNA 1: CACCCGUGCAAAAAUGCAGGGGUCUAAAACUGAGCGGAUAACCUCUCUAUGG
RNA 2: GGGAAUGGAUCCACAUCUACGAAUUCGUACCAUAGAGAGGUUAUCACGCUCAUCCGAGAUCGGAAGAGCACACGU
B3: target 1 insA 3' of 7,insA 3' of 2 (mixed)
RNA 1: CACCCGUGCAAAAAUGCAGGGGUCUAAAACUGAGCGGAUAACCUCUCUAUGG
RNA 2: GGGAAUGGAUCCACAUCUACGAAUUCGUACCAUAGAGAGGUUAUCACGCUCAACCGAGAUCGGAAGAGCACACGU
B4: target 1 insU 3' of 20,insC 3' of 15 (mixed)
RNA 1: CACCCGUGCAAAAAUGCAGGGGUCUAAAACUGAGCGGAUAACCUCUCUAUGG
RNA 2: GGGAAUGGAUCCACAUCUACGAAUUCGUACCAUUAGAGCAGGUUAUCCGCUCACCGAGAUCGGAAGAGCACACGU
B5: target 1 insA 3' of 8,insG 3' of 7 (mixed)
RNA 1: CACCCGUGCAAAAAUGCAGGGGUCUAAAACUGAGCGGAUAACCUCUCUAUGG
RNA 2: GGGAAUGGAUCCACAUCUACGAAUUCGUACCAUAGAGAGGUUAUACGCGCUCACCGAGAUCGGAAGAGCACACGU
B6: target 1 G13U (mixed)
RNA 1: CACCCGUGCAAAAAUGCAGGGGUCUAAAACUGAGCGGAUAACCUCUCUAUGG
RNA 2: GGGAAUGGAUCCACAUCUACGAAUUCGUACCAUAGAGAUGUUAUCCGCUCACCGAGAUCGGAAGAGCACACGU
B7: target 1 U3C,A14C (mixed)
RNA 1: CACCCGUGCAAAAAUGCAGGGGUCUAAAACUGAGCGGAUAACCUCUCUAUGG
RNA 2: GGGAAUGGAUCCACAUCUACGAAUUCGUACCAUAGAGCGGUUAUCCGCCCACCGAGAUCGGAAGAGCACACGU
B8: target 1 insC 3' of 8,insU 3' of 2 (mixed)
RNA 1: CACCCGUGCAAAAAUGCAGGGGUCUAAAACUGAGCGGAUAACCUCUCUAUGG
RNA 2: GGGAAUGGAUCCACAUCUACGAAUUCGUACCAUAGAGAGGUUAUCCCGCUCUACCGAGAUCGGAAGAGCACACGU
B9: target 1 insA 3' of 22,insU 3' of 2 (mixed)
RNA 1: CACCCGUGCAAAAAUGCAGGGGUCUAAAACUGAGCGGAUAACCUCUCUAUGG
RNA 2: GGGAAUGGAUCCACAUCUACGAAUUCGUACACAUAGAGAGGUUAUCCGCUCUACCGAGAUCGGAAGAGCACACGU
B10: target 1 A1U,A20C (mixed)
RNA 1: CACCCGUGCAAAAAUGCAGGGGUCUAAAACUGAGCGGAUAACCUCUCUAUGG
RNA 2: GGGAAUGGAUCCACAUCUACGAAUUCGUACCCUAGAGAGGUUAUCCGCUCUCCGAGAUCGGAAGAGCACACGU
B11: target 1 insA 3' of 15,insU 3' of 4 (mixed)
RNA 1: CACCCGUGCAAAAAUGCAGGGGUCUAAAACUGAGCGGAUAACCUCUCUAUGG
RNA 2: GGGAAUGGAUCCACAUCUACGAAUUCGUACCAUAGAGAAGGUUAUCCGCUUCACCGAGAUCGGAAGAGCACACGU
B12: target 1 A9G,A16G (mixed)
RNA 1: CACCCGUGCAAAAAUGCAGGGGUCUAAAACUGAGCGGAUAACCUCUCUAUGG
RNA 2: GGGAAUGGAUCCACAUCUACGAAUUCGUACCAUAGGGAGGUUGUCCGCUCACCGAGAUCGGAAGAGCACACGU
B13: target 1 A1U,G13U (mixed)
RNA 1: CACCCGUGCAAAAAUGCAGGGGUCUAAAACUGAGCGGAUAACCUCUCUAUGG
RNA 2: GGGAAUGGAUCCACAUCUACGAAUUCGUACCAUAGAGAUGUUAUCCGCUCUCCGAGAUCGGAAGAGCACACGU
B14: target 1 del8,del20 (mixed)
RNA 1: CACCCGUGCAAAAAUGCAGGGGUCUAAAACUGAGCGGAUAACCUCUCUAUGG
RNA 2: GGGAAUGGAUCCACAUCUACGAAUUCGUACCUAGAGAGGUUACCGCUCACCGAGAUCGGAAGAGCACACGU
B15: target 1 insA 3' of 11,insG 3' of 7 (mixed)
RNA 1: CACCCGUGCAAAAAUGCAGGGGUCUAAAACUGAGCGGAUAACCUCUCUAUGG
RNA 2: GGGAAUGGAUCCACAUCUACGAAUUCGUACCAUAGAGAGGUAUAUCGCGCUCACCGAGAUCGGAAGAGCACACGU
B16: target 1 insA 3' of 21,insC 3' of 5 (mixed)
RNA 1: CACCCGUGCAAAAAUGCAGGGGUCUAAAACUGAGCGGAUAACCUCUCUAUGG
RNA 2: GGGAAUGGAUCCACAUCUACGAAUUCGUACCAAUAGAGAGGUUAUCCGCCUCACCGAGAUCGGAAGAGCACACGU
B17: target 1 insG 3' of 9,insC 3' of 3 (mixed)
RNA 1: CACCCGUGCAAAAAUGCAGGGGUCUAAAACUGAGCGGAUAACCUCUCUAUGG
RNA 2: GGGAAUGGAUCCACAUCUACGAAUUCGUACCAUAGAGAGGUUAGUCCGCUCCACCGAGAUCGGAAGAGCACACGU
B18: target 1 insU 3' of 13,insA 3' of 6 (mixed)
RNA 1: CACCCGUGCAAAAAUGCAGGGGUCUAAAACUGAGCGGAUAACCUCUCUAUGG
RNA 2: GGGAAUGGAUCCACAUCUACGAAUUCGUACCAUAGAGAGUGUUAUCCAGCUCACCGAGAUCGGAAGAGCACACGU
B19: target 1 C6G,G17C (mixed)
RNA 1: CACCCGUGCAAAAAUGCAGGGGUCUAAAACUGAGCGGAUAACCUCUCUAUGG
RNA 2: GGGAAUGGAUCCACAUCUACGAAUUCGUACCAUACAGAGGUUAUCGGCUCACCGAGAUCGGAAGAGCACACGU
B20: target 1 C4G,A18U (mixed)
RNA 1: CACCCGUGCAAAAAUGCAGGGGUCUAAAACUGAGCGGAUAACCUCUCUAUGG
RNA 2: GGGAAUGGAUCCACAUCUACGAAUUCGUACCAUUGAGAGGUUAUCCGGUCACCGAGAUCGGAAGAGCACACGU
B21: target 1 A1G,G13U (mixed)
RNA 1: CACCCGUGCAAAAAUGCAGGGGUCUAAAACUGAGCGGAUAACCUCUCUAUGG
RNA 2: GGGAAUGGAUCCACAUCUACGAAUUCGUACCAUAGAGAUGUUAUCCGCUCGCCGAGAUCGGAAGAGCACACGU
B22: target 1 insC 3' of 19,insC 3' of 5 (mixed)
RNA 1: CACCCGUGCAAAAAUGCAGGGGUCUAAAACUGAGCGGAUAACCUCUCUAUGG
RNA 2: GGGAAUGGAUCCACAUCUACGAAUUCGUACCAUCAGAGAGGUUAUCCGCCUCACCGAGAUCGGAAGAGCACACGU
B23: target 1 insG 3' of 21,insU 3' of 7 (mixed)
RNA 1: CACCCGUGCAAAAAUGCAGGGGUCUAAAACUGAGCGGAUAACCUCUCUAUGG
RNA 2: GGGAAUGGAUCCACAUCUACGAAUUCGUACCGAUAGAGAGGUUAUCUCGCUCACCGAGAUCGGAAGAGCACACGU
B24: target 1 complement block 3-14 (mixed)
RNA 1: CACCCGUGCAAAAAUGCAGGGGUCUAAAACUGAGCGGAUAACCUCUCUAUGG
RNA 2: GGGAAUGGAUCCACAUCUACGAAUUCGUACCAUAGAGUCCAAUAGGCGACACCGAGAUCGGAAGAGCACACGU

Molecular target: T1, EsCas13d, nuclease-dead
Test: crRNA (strand 1, pre-loaded); Mg2+; 40 mM Tris-HCl pH 7.5, 150 mM NaCl, 6 mM MgCl2, 1 mM DTT, 0.1% Tween-20, 0.2 mg/ml BSA; 25 C; 10 min per concentration, then washed
Conditions: tags: His6-TwinStrep-SUMO cleaved; N-terminal SNAP kept (SNAP-Surface 488); label: 3' end held by stalled T7 RNA polymerase

Point of comparison: B15, Kd 16.7 ± 0.7 nM. Against it:
- B1 — 1.7-fold lower, 9.8 ± 1.2 nM
- B2 — 2.2-fold lower, 7.7 ± 0.5 nM
- B3 — 2.3-fold lower, 7.2 ± 0.8 nM
- B4 — 1.7-fold higher, 28 ± 2.2 nM
- B5 — within 1.5-fold, 13.3 ± 0.8 nM
- B6 — 2-fold higher, 34 ± 4 nM
- B7 — 5-fold higher, 84 ± 18 nM
- B8 — within 1.5-fold, 21.3 ± 2.8 nM
- B9 — within 1.5-fold, 14.6 ± 1 nM
- B10 — 2.2-fold higher, 36 ± 8 nM
- B11 — 1.8-fold lower, 9.5 ± 1.2 nM
- B12 — 2.2-fold higher, 37 ± 4 nM
- B13 — 2.9-fold higher, 49 ± 10 nM
- B14 — 4.4-fold higher, 74 ± 9 nM
- B16 — 2.7-fold higher, 45 ± 7 nM
- B17 — within error, 15.9 ± 0.9 nM
- B18 — 2-fold higher, 33.9 ± 3.2 nM
- B19 — 2.5-fold higher, ~41 nM
- B20 — within 1.5-fold, 22.7 ± 2.4 nM
- B21 — 2.5-fold higher, 41 ± 7 nM
- B22 — 4.5-fold higher, 75 ± 21 nM
- B23 — 4.4-fold higher, 73 ± 9 nM
- B24 — 3.6-fold higher, ~60 nM
